Source: doi:10.1101/2025.05.02.651858, “Structural basis of unidirectional DNA recombination by the ϕC31 serine integrase” (bioRxiv, 2025)

B1: ϕC31 integrase S12A (cleavage-deficient mutant, full length) (enzyme, Streptomyces phage ϕC31, UniProt Q9T221 1-605, looked up)
chain: MDTYAGAYDRQARERENSSAASPATQRSANEDKAADLQREVERDGGRFRFVGHFSEAPGTSAFGTAERPEFERILNECRAGRLNMIIVYDVSRFSRLKVMDAIPIVSELLALGVTIVSTQEGVFRQGNVMDLIHLIMRLDASHKESSLKSAKILDTKNLQRELGGYVGGKAPYGFELVSETKEITRNGRMVNVVINKLAHSTTPLTGPFEFEPDVIRWWWREIKTHKHLPFKPGSQAAIHPGSITGLCKRMDADAVPTRGETIGKKTASSAWDPATVMRILRDPRIAGFAAEVIYKKKPDGTPTTKIEGYRIQRDPITLRPVELDCGPIIEPAEWYELQAWLDGRGRGKGLSRGQAILSAMDKLYCECGAVMTSKRGEESIKDSYRCRRRKVVDPSAPGQHEGTCNVSMAALDKFVAERIFNKIRHAEGDEETLALLWEAARRFGKLTEAPEKSGERANLVAERADALNALEELYEDRAAGAYDGPVGRKHFRKQQAALTLRQQGAEERLAELEAAEAPKLPLDQWFPEDADADPTGPKSWWGRASVDDKRVFVGLFVDKIVVTKSTTGRGQGTPIEKRASITWAKPPTDDDEDDAQDGTEDVAA
notes: ϕC31 integrase, Streptomyces phage ϕC31, UniProt Q9T221, 605-amino acid polypeptide chain, with S12A; also called full-length S12A integrase; source: E. coli BL21 (DE3) LOBSTR, pET28a, purified (HisTrap Ni-NTA, Superose 6 SEC)

Experiments:
[1] = biological target: the molecule itself; test: SEC-MALS; SEC-MALLS of equal amounts of purified integrase–attB and integrase–attP complexes mixed; step: two dimer–att complexes to the tetramer–attB–attP synaptic complex; Superose 6 increase 10/300, 20 mM HEPES pH 7.4, 150 mM NaCl, 2 mM MgCl2, 0.1 mM TCEP, 25 °C
[2] = biological target: the molecule itself; test: cryo-EM structure; WT integrase–attL60 dimer complex, without RDF; 20 mM HEPES pH 7.4, 150 mM NaCl, 2 mM MgCl2, 0.1 mM TCEP; 0.4 mg/ml
[3] = biological target: the molecule itself; test: SEC-MALS; SEC-MALLS of integrase–attL complexes, without RDF; step: dimer–attL to attL–attL synaptic complex; Superose 6 increase 10/300, 20 mM HEPES pH 7.4, 150 mM NaCl, 2 mM MgCl2, 0.1 mM TCEP, 25 °C
[4] = biological target: B1; test: SEC-MALS; SEC-MALLS with SDS-PAGE of the peaks: pre-formed integrase S12A–attB–attP synaptic complex mixed with RDF at 1:3 integrase:RDF molar ratio, 5 min room temperature; Superose 6 increase 10/300, 20 mM HEPES pH 7.4, 150 mM NaCl, 2 mM MgCl2, 0.1 mM TCEP, 25 °C; details: both partners purified

## B1
[1]
  stoichiometry N: 4

B2: ϕC31 integrase (wild type) (enzyme, Streptomyces phage ϕC31, UniProt Q9T221 1-605, looked up)
chain: MDTYAGAYDRQSRERENSSAASPATQRSANEDKAADLQREVERDGGRFRFVGHFSEAPGTSAFGTAERPEFERILNECRAGRLNMIIVYDVSRFSRLKVMDAIPIVSELLALGVTIVSTQEGVFRQGNVMDLIHLIMRLDASHKESSLKSAKILDTKNLQRELGGYVGGKAPYGFELVSETKEITRNGRMVNVVINKLAHSTTPLTGPFEFEPDVIRWWWREIKTHKHLPFKPGSQAAIHPGSITGLCKRMDADAVPTRGETIGKKTASSAWDPATVMRILRDPRIAGFAAEVIYKKKPDGTPTTKIEGYRIQRDPITLRPVELDCGPIIEPAEWYELQAWLDGRGRGKGLSRGQAILSAMDKLYCECGAVMTSKRGEESIKDSYRCRRRKVVDPSAPGQHEGTCNVSMAALDKFVAERIFNKIRHAEGDEETLALLWEAARRFGKLTEAPEKSGERANLVAERADALNALEELYEDRAAGAYDGPVGRKHFRKQQAALTLRQQGAEERLAELEAAEAPKLPLDQWFPEDADADPTGPKSWWGRASVDDKRVFVGLFVDKIVVTKSTTGRGQGTPIEKRASITWAKPPTDDDEDDAQDGTEDVAA
notes: ϕC31 integrase, Streptomyces phage ϕC31, UniProt Q9T221, 605-amino acid polypeptide chain; Used only for the integrase–attL cryo-EM complex (dimer on attL60 DNA); also called WT integrase; source: E. coli BL21 (DE3) LOBSTR, pET28a, purified (HisTrap Ni-NTA, Superose 6 SEC)
[2]
  binding result: binds

B3: ϕC31 integrase S12A/E449K (enzyme, Streptomyces phage ϕC31, UniProt Q9T221 1-605, looked up)
chain: MDTYAGAYDRQARERENSSAASPATQRSANEDKAADLQREVERDGGRFRFVGHFSEAPGTSAFGTAERPEFERILNECRAGRLNMIIVYDVSRFSRLKVMDAIPIVSELLALGVTIVSTQEGVFRQGNVMDLIHLIMRLDASHKESSLKSAKILDTKNLQRELGGYVGGKAPYGFELVSETKEITRNGRMVNVVINKLAHSTTPLTGPFEFEPDVIRWWWREIKTHKHLPFKPGSQAAIHPGSITGLCKRMDADAVPTRGETIGKKTASSAWDPATVMRILRDPRIAGFAAEVIYKKKPDGTPTTKIEGYRIQRDPITLRPVELDCGPIIEPAEWYELQAWLDGRGRGKGLSRGQAILSAMDKLYCECGAVMTSKRGEESIKDSYRCRRRKVVDPSAPGQHEGTCNVSMAALDKFVAERIFNKIRHAEGDEETLALLWEAARRFGKLTKAPEKSGERANLVAERADALNALEELYEDRAAGAYDGPVGRKHFRKQQAALTLRQQGAEERLAELEAAEAPKLPLDQWFPEDADADPTGPKSWWGRASVDDKRVFVGLFVDKIVVTKSTTGRGQGTPIEKRASITWAKPPTDDDEDDAQDGTEDVAA
notes: ϕC31 integrase, UniProt Q9T221, with S12A and E449K; also called S12A/E449K double mutant; source: E. coli BL21 (DE3) LOBSTR, pET28a, purified (HisTrap Ni-NTA, Superose 6 SEC)
[3]
  binding result: binds

B4: ϕC31 Recombination Directionality Factor (RDF), gp3 (natural protein, Streptomyces phage ϕC31, UniProt Q9T216 1-244, looked up)
chain: MAKRSIWAGDEDNKPKKRETYADDTVGRFHSGYSETNERGKVVPVALDKWRISTGEQSVADAVAQLFGGTPVENEESTSENFIDVFTDRPKVPVIIEADGIHWDMKLWLNGKLKHHCDGFDFVSHADEEMIGQPCGCPKLFDERKAAAKEYDAPNPAITVTFTLADDPELGRFKFQTGSWTLFKVLHEAEDDVERVGKGGAVLANLELELVEYTPKRGPMRNKLVSYYKPTITVLKSYNDAIAD
notes: RDF gp3 protein of Streptomyces phage ϕC31, UniProt Q9T216; residues 23–239 were modelled in the cryo-EM structure; In the excisive synaptic complex structure the RDF stood as the C-terminal part of the fusion protein m9, not as the separate His-tagged protein; source: E. coli BL21 (DE3) LOBSTR, pET28a, purified (HisTrap Ni-NTA, Superdex 200 SEC)
[4]
  binding result: binds

B5: ϕC31 integrase ΔNTD (residues 1–140 deleted) (domain or fragment, Streptomyces phage ϕC31, UniProt Q9T221 141-605, looked up)
chain: ASHKESSLKSAKILDTKNLQRELGGYVGGKAPYGFELVSETKEITRNGRMVNVVINKLAHSTTPLTGPFEFEPDVIRWWWREIKTHKHLPFKPGSQAAIHPGSITGLCKRMDADAVPTRGETIGKKTASSAWDPATVMRILRDPRIAGFAAEVIYKKKPDGTPTTKIEGYRIQRDPITLRPVELDCGPIIEPAEWYELQAWLDGRGRGKGLSRGQAILSAMDKLYCECGAVMTSKRGEESIKDSYRCRRRKVVDPSAPGQHEGTCNVSMAALDKFVAERIFNKIRHAEGDEETLALLWEAARRFGKLTEAPEKSGERANLVAERADALNALEELYEDRAAGAYDGPVGRKHFRKQQAALTLRQQGAEERLAELEAAEAPKLPLDQWFPEDADADPTGPKSWWGRASVDDKRVFVGLFVDKIVVTKSTTGRGQGTPIEKRASITWAKPPTDDDEDDAQDGTEDVAA
notes: ϕC31 integrase, UniProt Q9T221, residues 1–140 deleted from the 605-amino acid chain; source: E. coli BL21 (DE3) LOBSTR, pET28a, purified (HisTrap Ni-NTA, Superose 6 SEC)
[1]
  binding result: binds
